Experiment [1] deals with unc5b_human UNC5B (UniProt Q8IZJ1).
Experiment [2] has the same target. This is another data set of the same source.

Sequence of unc5b_human UNC5B (Q8IZJ1 whole entry): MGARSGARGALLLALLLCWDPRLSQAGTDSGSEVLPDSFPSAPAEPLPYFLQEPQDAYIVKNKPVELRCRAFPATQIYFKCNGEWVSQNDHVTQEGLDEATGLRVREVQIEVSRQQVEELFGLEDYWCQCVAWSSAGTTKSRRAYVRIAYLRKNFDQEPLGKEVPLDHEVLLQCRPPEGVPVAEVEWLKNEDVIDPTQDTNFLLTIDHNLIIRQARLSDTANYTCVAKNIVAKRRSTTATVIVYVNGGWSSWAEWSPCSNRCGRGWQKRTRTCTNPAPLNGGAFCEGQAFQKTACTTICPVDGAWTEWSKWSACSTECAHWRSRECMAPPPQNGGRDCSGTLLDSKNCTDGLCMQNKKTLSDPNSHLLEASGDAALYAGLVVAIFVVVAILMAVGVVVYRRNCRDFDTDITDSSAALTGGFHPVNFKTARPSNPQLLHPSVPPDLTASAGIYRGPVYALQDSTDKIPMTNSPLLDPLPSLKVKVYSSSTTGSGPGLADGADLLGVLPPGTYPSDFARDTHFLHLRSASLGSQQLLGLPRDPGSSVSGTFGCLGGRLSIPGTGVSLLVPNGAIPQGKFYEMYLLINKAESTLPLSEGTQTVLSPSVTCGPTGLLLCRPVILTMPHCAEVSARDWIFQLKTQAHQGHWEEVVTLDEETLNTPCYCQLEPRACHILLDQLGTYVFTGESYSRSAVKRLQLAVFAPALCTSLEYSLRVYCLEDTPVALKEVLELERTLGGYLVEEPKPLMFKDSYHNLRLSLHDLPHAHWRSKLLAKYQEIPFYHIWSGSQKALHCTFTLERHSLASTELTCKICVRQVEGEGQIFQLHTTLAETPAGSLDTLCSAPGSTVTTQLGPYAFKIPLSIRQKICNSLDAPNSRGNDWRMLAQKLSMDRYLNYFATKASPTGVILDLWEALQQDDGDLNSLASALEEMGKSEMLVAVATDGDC

Consider “Arf-GAP with GTPase, ANK repeat and PH domain-containing protein 2 (Rattus norvegicus (Rat)), Q8CGU4 K413A;S414N”, for which the “effect of a mutation on the interaction” value with unc5b_human UNC5B [1] is given as “disrupting interaction”.

Turning to “Arf-GAP with GTPase, ANK repeat and PH domain-containing protein 2 (Rattus norvegicus (Rat)), Q8CGU4 Y1032F”, the “effect of a mutation on the interaction” value in the experiment with unc5b_human UNC5B [2] is listed as “disrupting interaction”.

For the substance “Arf-GAP with GTPase, ANK repeat and PH domain-containing protein 2 (Rattus norvegicus (Rat)), Q8CGU4 Y1032F;Y1124F”, the “effect of a mutation on the interaction” value in the experiment with unc5b_human UNC5B [2] was “disrupting interaction”.

With “Arf-GAP with GTPase, ANK repeat and PH domain-containing protein 2 (Rattus norvegicus (Rat)), Q8CGU4 Y1124F”, in the experiment with unc5b_human UNC5B [2], the “effect of a mutation on the interaction” value is on record as “disrupting interaction”.
